B1: M54: G1 variant; L1 R28N T30A; L2 G50A; H2 E54K A57N S58P; HC-FW3 L99T A100V (antibody, V domains shown)
VH: EVQLVESGGGLVQPGGSLRLSCAASGFTFSNYWISWVRQAPGKGLEWVAEIRSKSDNPATHYAEAVKGRFTISRDNAKNSLYLQMNSLRAEDTAVYYCTVYFDYGLAIQNYWGQGTLVTVSS
VL: EIVLTQSPATLSLSPGERATLSCKASKNVATYVSWYQQKPGQAPRLLIYAASNRYLGIPARFSGSGSGTDFTLTISSLEPEDFAVYYCSQSYNYPYTFGQGTKLEIK
B2: M66: G1 variant; L1 R28N T30G; L2 L561; H2 E54K A57E; HC-FW3 L99T A100V (antibody, V domains shown)
VH: B1 VH with N57E, P58S
VL: B1 VL with A30G, A50G, L56I
B3: M55: G1 variant; L1 R28N T30A; L2 L56S; H2 E54K A57N S58E E64D; HC-FW3 L99T A100V (antibody, V domains shown)
VH: B1 VH with P58E, E64D
VL: B1 VL with A50G, L56S
B4: M64: G1 variant; L1 R28N T30G; L2 G50A; H2 E54K A57N S58V; HC-FW3 L99T A100V (antibody, V domains shown)
VH: B1 VH with P58V
VL: B1 VL with A30G
B5: M68: G1 variant; L1 R28N T30G; L2 L561; H2 E54K A57N S58D E64D; HC-FW3 L99T A100V (antibody, V domains shown)
VH: B1 VH with P58D, E64D
VL: B1 VL with A30G, A50G, L56I
B6: M67: G1 variant; L1 R28N T30G; L2 L561; H2 E54K A57F; HC-FW3 L99T A100V (antibody, V domains shown)
VH: B1 VH with N57F, P58S
VL: B1 VL with A30G, A50G, L56I
B7: M70: G1 variant; L1 R28N T30G; L2 L561; H2 E54K A57S; HC-FW3 L99T A100V (antibody, V domains shown)
VH: B1 VH with N57S, P58S
VL: B1 VL with A30G, A50G, L56I
B8: M65: G1 variant; L1 R28N T30G; L2 G50A L56I; H2 E54K A57C; HC-FW3 L99T A100V (antibody, V domains shown)
VH: B1 VH with N57C, P58S
VL: B1 VL with A30G, L56I
B9: M56: G1 variant; L1 R28N T30D; L2 L56S; H2 E54K A57N H61F; HC-FW3 L99T A100V (antibody, V domains shown)
VH: B1 VH with P58S, H61F
VL: B1 VL with A30D, A50G, L56S
B10: M69: G1 variant; L1 R28N T30G; L2 L561; H2 E54K A57N S58E; HC-FW3 L99T A100V (antibody, V domains shown)
VH: B1 VH with P58E
VL: B1 VL with A30G, A50G, L56I
B11: M57: G1 variant; L1 R28N T30D; L2 L56S; H2 E54K A57N S58E; HC-FW3 L99T A100V (antibody, V domains shown)
VH: B1 VH with P58E
VL: B1 VL with A30D, A50G, L56S
B12: M61: G1 variant; L1 R28N T30G; L2 A51H; H2 E54Q A57N H61F; HC-FW3 L99T A100V (antibody, V domains shown)
VH: B1 VH with K54Q, P58S, H61F
VL: B1 VL with A30G, A50G, A51H
B13: M62: G1 variant; L1 R28N T30G; L2 A51H L56T; H2 E54K A57N S58E; HC-FW3 L99T A100V (antibody, V domains shown)
VH: B1 VH with P58E
VL: B1 VL with A30G, A50G, A51H, L56T
B14: M60: G1 variant; L1 R28N T30D; L2 L56S; H2 E54K A57N S58R H61F; HC-FW3 L99T A100V (antibody, V domains shown)
VH: B1 VH with P58R, H61F
VL: B1 VL with A30D, A50G, L56S
B15: M58: G1 variant; L1 R28N T30D; L2 L56S; H2 E54K A57N S58I H61F; HC-FW3 L99T A100V (antibody, V domains shown)
VH: B1 VH with P58I, H61F
VL: B1 VL with A30D, A50G, L56S
B16: M71: G1 variant; L1 R28N T30G; L2 L561; H2 E54K A57Y; HC-FW3 L99T A100V (antibody, V domains shown)
VH: B1 VH with N57Y, P58S
VL: B1 VL with A30G, A50G, L56I
B17: M63: G1 variant; L1 R28N T30G; L2 G50A; H2 E54K A57N S58T; HC-FW3 L99T A100V (antibody, V domains shown)
VH: B1 VH with P58T
VL: B1 VL with A30G
B18: M59: G1 variant; L1 R28N T30D; L2 L56S; H2 E54K A57N S58N H61F; HC-FW3 L99T A100V (antibody, V domains shown)
VH: B1 VH with P58N, H61F
VL: B1 VL with A30D, A50G, L56S

Changes are numbered by the printed parent chain. In names and notes the source's numbering stands.

One test concerns the target T1, human α-CGRP (Homo sapiens, UniProt P06881).
T1 construct: 1-37 (WT); purchased GenScript Corporation or Global Peptide Services
T1 sequence (P06881 83-119 limits assumed): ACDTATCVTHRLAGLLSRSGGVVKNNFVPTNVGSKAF
As to the kind of experiment: Biacore SPR affinity of Fab fragments to N-biotinylated human α-CGRP on SA chip. Conditions: 37° C., screening mode except underlined values. The test is classed as binding. As to the method: (§1) Affinity determination of the Fabs. Affinities of the anti-CGRP monoclonal antibodies were determined at either 25° C. or 37° C. using the BIACORE3000™ surface plasmon resonance (SPR) system (Biacore, INC, Piscataway N.J.) with the manufacture's own running buffer, HBS-EP (10 mM HEPES pH 7.4, 150 mM NaCl, 3 mM EDTA, 0.005% v/v polysorbate P20). Affinity was determined by capturing N-terminally biotinylated CGRP peptides (custom ordered from GenScript Corporation, New Jersey or Global Peptide Services, Colorado) via pre-immobilized streptavidin on SA chip and measuring binding kinetics of antibody Fab titrated across the CGRP surface. Biotinylated CGRP was diluted into HBS-EP and injected over the chip at a concentration of less than 0.001 mg/ml. Using variable flow time across the individual chip channels, two ranges of antigen density were achieved: <50 response units (RU) for detailed kinetic studies and about 800 RU for concentration studies and screening. […] After each binding cycle, surfaces were regenerated with 25 mM NaOH in 25% v/v ethanol, which was tolerated over hundreds of cycles. Kinetic association rate (kon) and dissociation rate (koff) were obtained simultaneously by fitting the data to a 1:1 Langmuir binding model (Karlsson et al. (1994). Methods Enzymology 6. 99-110) using the BIAevaluation program. Global equilibrium dissociation constants (KD) or “affinities” were calculated from the ratio KD=koff/kon.
(§2) Biacore assay for affinity determination. […] All Biacore assays were conducted in HBS-EP running buffer (10 mM HEPES pH 7.4, 150 mM NaCl, 3 mM EDTA, 0.005% v/v polysorbate P20). CGRP surfaces were prepared by diluting the N-biotinylated CGRP to a concentration of less than 0.001 mg/mL into HBS-EP buffer and injecting it across the SA sensor chip using variable contact times. Low capacity surfaces, corresponding to capture levels <50 response units (RU) were used for high-resolution kinetic studies, whereas high capacity surfaces (about 800 RU of captured CGRP) were used for concentration studies, screening, and solution affinity determinations. […] Samples were typically injected for 1 minute at 100 μL/min and dissociation times of at least 10 minutes were allowed. After each binding cycle, surfaces were regenerated with 25 mM NaOH in 25% v/v ethanol, which was tolerated over hundreds of cycles. An entire titration series (typically generated in duplicate) was fit globally to a 1:1 Langmuir binding model using the BIAevaluation program. This returned a unique pair of association and dissociation kinetic rate constants (respectively, kon and koff) for each binding interaction, whose ratio gave the equilibrium dissociation constant (KD=koff/kon).
(§3) High-resolution analysis of binding interactions with extremely slow off rates. […] The protocol described above was used with the following modifications. The association rate constant (kon) was determined by injecting a 2-fold titration series (in duplicate) spanning 550 nM-1 nM for 30 seconds at 100 μL/min and allowing only a 30 second dissociation phase. The dissociation rate constant (koff) was determined by injecting three concentrations (high, medium, and low) of the same titration series in duplicate for 30 seconds and allowing a 2-hour dissociation phase. The affinity (KD) of each interaction was obtained by combining the kon and koff values obtained in both types of experiments, as shown in Table 4.
A general note: SPR reads the build-up and loss of mass on a sensor chip optically.
For the molecule B1, the “α-human koff” value was 0.00179 s⁻¹.

For B2, the “α-human koff” value came to 0.00052 s⁻¹.

As to B3, the “α-human koff” value worked out at 0.000478 s⁻¹.

Consider B4, for which the “α-human koff” value was 0.00132 s⁻¹.

B5: the “α-human koff” value is 0.000428 s⁻¹.

Consider B6, for which the “α-human koff” value is 0.00082 s⁻¹.

Take B7: the “α-human koff” value worked out at 0.000559 s⁻¹.

For B8, the “α-human koff” value was 0.000803 s⁻¹.

For B9, the “α-human koff” value was found to be 0.000479 s⁻¹.

Consider B10, for which the “α-human koff” value is 0.000733 s⁻¹.

On to B11, for which the “α-human koff” value was found to be 0.000322 s⁻¹.

Take B12: the “α-human koff” value is 0.000459 s⁻¹.

Turning to B13, the “α-human koff” value came to 0.000557 s⁻¹.

As to B14, the “α-human koff” value is 0.000911 s⁻¹.

Consider B15, for which the “α-human koff” value came to 0.00195 s⁻¹.

Turning to B16, the “α-human koff” value is 0.00128 s⁻¹.

On to B17, for which the “α-human koff” value amounted to 0.0015 s⁻¹.

Turning to B18, the “α-human koff” value is 0.000524 s⁻¹.

The next test has as its target T2, rat α-CGRP (Rattus norvegicus, UniProt P01256).
T2 construct: rat α (1-37); purchased GenScript Corporation or Global Peptide Services
T2 sequence (P01256 83-119 limits assumed): T1 sequence (P06881 83-119 limits assumed) with A1S, D3N, N25D, K35E
Kind of test: Biacore SPR affinity of Fab fragments to N-biotinylated rat α-CGRP on SA chip. The test is classed as binding. The settings on record: 37° C., screening mode except underlined values. How it is done:
as §1, §2, §3
B1: the “α-rat koff” value turned out to be 0.00216 s⁻¹.

For B2, the “α-rat koff” value was found to be 0.00511 s⁻¹.

For B3, the “α-rat koff” value is 0.00585 s⁻¹.

In the case of B4, the “α-rat koff” value was 0.0234 s⁻¹.

Consider B5, for which the “α-rat koff” value was 0.00676 s⁻¹.

B6: the “α-rat koff” value came to 0.00171 s⁻¹.

Turning to B7, the “α-rat koff” value was found to be 0.00607 s⁻¹.

With B8, the “α-rat koff” value worked out at 0.00407 s⁻¹.

For the molecule B9, the “α-rat koff” value is 0.00935 s⁻¹.

Regarding B10, the “α-rat koff” value was determined as 0.00181 s⁻¹.

In the case of B11, the “α-rat koff” value was 0.0104 s⁻¹.

For the molecule B12, the “α-rat koff” value turned out to be 0.00521 s⁻¹.

Consider B13, for which the “α-rat koff” value came to 0.00575 s⁻¹.

Regarding B14, the “α-rat koff” value is 0.0272 s⁻¹.

For B15, the “α-rat koff (1/s)” value is given as “No binding”.

B16: the “α-rat koff” value was found to be 0.00212 s⁻¹.

Regarding B17, the “α-rat koff” value worked out at 0.00265 s⁻¹.

Consider B18, for which the “α-rat koff” value came to 0.0123 s⁻¹.

Source of the values: patent US20190071490A1, “Preventing Post-Ictal Headaches” (Beth Israel Deaconess Medical Center, Inc., priority 2017, published 2019).
